{"source": "patent US12338291B2", "about": "“Humanized antibody molecules to CD138 and uses thereof” (VISTERRA, INC., priority 2019, dated 2025)", "molecules": {"B1": {"name": "mAb 3821: humanized anti-CD138 antibody; VH SEQ ID NO: 466, VL SEQ ID NO: 476 (antibody, V domains shown)", "VH": "QVQLVQSGAEVKKPGSSVKVSCKASGYSFSSYYMHWVRQAPGQGLEWMGTIHPSDSTANYNQKFKGRVTITVDKSTSTAYMELSSLRSEDTAVYYCANFVYWGQGTTVTVSS", "VL": "DIVMTQTPLSLSVTPGQPASISCKSSKSLLYKDGKTYLNWFLQKPGQSPQLLIYVVSTRASGVPDRFSGSGSGTDFTLKISRVEAEDVGVYYCQQLVQYPYTFGQGTKLEIK"}, "B2": {"name": "mAb 4521: humanized anti-CD138 antibody; VH SEQ ID NO: 473, VL SEQ ID NO: 476 (antibody, V domains shown)", "VH": "B1 VH with S16A, S28N, S30A, A58T, I70M, K74T", "VL": "B1 VL"}, "B3": {"name": "mAb 4326: humanized anti-CD138 antibody; VH SEQ ID NO: 471, VL SEQ ID NO: 481 (antibody, V domains shown)", "VH": "B1 VH with S16A, A58T, K65Q, I70M, K74T, S77R", "VL": "DIVMTQSPDSLAVSLGERATINCKSSQSLLYKDGKTYLNWFQQKPGQPPKLLIYVVSTRASGVPDRFSGSGSGTDFTLTISSLQAEDVAVYYCQQLVEYPYTFGQGTKLEIK"}, "B4": {"name": "mAb 4321: humanized anti-CD138 antibody; VH SEQ ID NO: 471, VL SEQ ID NO: 476 (antibody, V domains shown)", "VH": "B1 VH with S16A, A58T, K65Q, I70M, K74T, S77R", "VL": "B1 VL"}, "B5": {"name": "mAb 3820: humanized anti-CD138 antibody; VH SEQ ID NO: 466, VL SEQ ID NO: 475 (antibody, V domains shown)", "VH": "B1 VH", "VL": "B1 VL with Q98E"}, "B6": {"name": "mAb 2810: parental mouse-human chimeric anti-CD138 antibody; VH SEQ ID NO: 296, VL SEQ ID NO: 292 (antibody, V domains shown)", "VH": "QVQLHQPGTSLVKPGASVKLSCKASGYSFSSYYMHWVKQRPGQGLEWIGTIHPSDSTTNYNQKFKGKATLTVDKSSRTAYMQLNSLTFEDSAVYYCANFVYWGQGTSVTVSS", "VL": "DIVITQDELSNPVTSGDSVSISCRSSKSLLYKDGKTYLNWFLQRPGQSPQLLIYVVSTRASGVSDRFSGSGSGTDFTLEISRVKAEDVGVYYCQQLVEYPYTFGGGTKLEIK"}}, "note": "Residue numbers refer to the chain shown, from its start."}
{"test_system": "CD138+ RPMI 8226 cells", "test": "Antibody binding to RPMI 8226 cells by flow cytometry", "set-up": "species or system human", "conditions": "FIG. 3", "method": "(§1) In one experiment, the humanized variants of monoclonal antibody 2810 were assessed for their capacity to bind to CD138 on the surface of cells. Briefly, the humanized variants of antibody 2810 were produced in HEK 293 cells following transient transfection. The antibodies were then serially diluted three-fold. Antibody binding to membrane CD138 was evaluated using the CD138+ human lymphoblastic myeloma cell line U266 and quantified by flow cytometry. Antibody cell binding was reported as geometric mean fluorescence intensity (MFI). Binding data were plotted using nonlinear regression analysis and a 4-parameter curve fit.\n(§2) First, humanized anti-CD138 antibody variants 3821, 4321, 4320, 4521, 4326, and 3820 were evaluated for binding to three different CD138+ multiple myeloma related cell lines: MM1.S, LP-1, and RPMI 8226. Antibody binding was measured by flow cytometry as described in Example 15."}
{"molecule": "B1", "Antibody binding by flow cytometry": "dose-dependent binding"}
{"molecule": "B2", "Antibody binding by flow cytometry": "dose-dependent binding"}
{"molecule": "B3", "Antibody binding by flow cytometry": "dose-dependent binding"}
{"molecule": "B4", "Antibody binding by flow cytometry": "dose-dependent binding"}
{"molecule": "B5", "Antibody binding by flow cytometry": "dose-dependent binding"}
{"test_system": "MM1.S (Luc) cells", "test": "MM.1S Luc xenograft multiple myeloma model in C.B-17 SCID mice, dose escalation (Example 7)", "type": "in vivo", "conditions": "day 35; vs vehicle control", "units": {"Median % T/C (whole body BLI)": "%"}}
{"molecule": "B6", "Median % T/C (whole body BLI)": 13.1}
{"test_system": "MM1.S (Luc) cells", "test": "MM.1S Luc xenograft multiple myeloma model in C.B-17 SCID mice, dose escalation (Example 7)", "type": "in vivo", "conditions": "i.p. twice weekly; mAb 4320 4, 8, 16 mg/kg; mAb 2810 4 mg/kg", "units": {"Tumor growth delay (time to median BLI of 1.0×10^9 p/s) relative to vehicle control": "days"}}
{"molecule": "B6", "Tumor growth delay (time to median BLI of 1.0×10^9 p/s) relative to vehicle control": 6.6}
{"test_system": "not listed separately", "test": "Antibody production titers in Chinese hamster ovary cells", "conditions": "CHO transient transfection, after Protein A purification", "excerpt": "The yields represent antibody amounts following purification from cell culture media by Protein A affinity chromatography, carried out under identical transfection conditions and culture scale. Differential pre-purification titers based on quantification using Protein-A biosensors (bio-layer interferometry) of antibody in culture media was also noted likewise indicating differential expression levels (antibody titers).", "units": {"Expression": "mg/L"}}
{"molecule": "B6", "Expression": 30.2}
{"test_system": "not listed separately", "test": "Differential scanning fluorescence (DSF) thermal stability", "type": "physicochemical", "conditions": "PBS pH 7.4, 25-95 °C, first thermal transition", "excerpt": "(§3) Thermal stability represents an important property of antibodies and is used as a predictive surrogate of pharmaceutical drug stability in humans based on a relative stability profile as characterized by differential thermal melting profiles. Several methods exist for evaluation of product stability based on thermal melting. These include, for example, circular dichroism (CD), differential scanning calorimetry (DSC), and differential scanning fluorescence (DSF), among others. In this example, the thermal stabilities of select humanized anti-CD138 antibodies were evaluated by DSF. DSF was used to monitor the conformational stability of a protein as it was exposed to increasing thermal stress. The dye, SYPRO Orange®, fluoresces in a hydrophobic environment, such as hydrophobic core residues that are exposed during thermally triggered protein unfolding, or denaturation. In brief, SYPRO® Orange Dye (Sigma Chemical) was diluted 1:500 in phosphate buffered saline (PBS), pH 7.4, without addition of any detergents. Antibodies were likewise diluted in PBS to a target concentration of 0.5 mg/mL. 15 μl of diluted antibody and fluorescent dye were added 1:1 (v/v) into a 96 well microtiter plate and thoroughly mixed by repeat pipetting. Thermal scans were carried out using a real-time quantitative PCR (qPCR) thermal cycler with fluorescence detection capabilities. Scans were initiated at 25° C. with incremental increase in well temperature of 1° C. ramp/minute from 25° C. to 95° C. The mid-point (Tm) between native state and the first unfolding event was reported as the transition temperature or melt temperature (TM). TMs were then calculated based on transformation of the data using the first derivative of the fluorescence signal versus time. (dfluoresence/dtime) (FIG. 7).", "units": {"TM1": "°C"}}
{"molecule": "B1", "TM1": 69.1}
{"molecule": "B4", "TM1": 69.3}
{"molecule": "B6", "TM1": 61.9}
{"test_system": "not listed separately", "test": "Differential scanning fluorescence (DSF) thermal stability", "type": "physicochemical", "conditions": "PBS pH 7.4, 25-95 °C, second thermal transition", "excerpt": "as §3", "units": {"TM2": "°C"}}
{"molecule": "B1", "TM2": 77.7}
{"molecule": "B4", "TM2": 76.9}
{"test_system": "CD138+ LP-1 cells", "test": "Antibody binding to LP-1 cells by flow cytometry", "set-up": "species or system human", "conditions": "FIG. 3", "method": "as §1, §2"}
{"molecule": "B1", "Antibody binding by flow cytometry": "dose-dependent binding"}
{"molecule": "B2", "Antibody binding by flow cytometry": "dose-dependent binding"}
{"molecule": "B3", "Antibody binding by flow cytometry": "dose-dependent binding"}
{"molecule": "B4", "Antibody binding by flow cytometry": "dose-dependent binding"}
{"molecule": "B5", "Antibody binding by flow cytometry": "dose-dependent binding"}
{"test_system": "CD138+ LP-1 cells", "test": "Luciferase-based ADCC reporter assay against LP-1", "type": "cell-based, human", "conditions": "3-fold dilutions from 10 μg/mL, E:T 10:1, 16 h, FIG. 4", "method": "(§4) In another experiment, the ADCC activity of the humanized variants of anti-CD138 antibody 2810 was assessed. Briefly, the humanized variant antibodies were produced by transient transfection of HEK 293 cells metabolically altered for purposes of reduced Fc fucosylation. The antibodies were then evaluated for antibody dependent cellular cytotoxicity (ADCC) activity against CD138^+ human lymphoblastic myeloma U266 cells in a luciferase based ADCC reporter assay using, as effector cells, engineered Jurkat cells stably transfected with the human FcγRIIIa receptor. U266 cells were incubated with mAbs that were 3-fold serially diluted from a starting concentration of 3 μg/mL and added to effector cells and CD138+U266 multiple myeloma target cells at a cell ratio of effector:target of 10:1. After 16-hour incubation at 37° C., luciferase activity was assessed as a measure of ADCC activity and reported as relative luminescence units (RLU). ADCC data were plotted using nonlinear regression analysis and a 4-parameter curve fit.\n(§5) Second, humanized anti-CD138 antibody variants 3821, 4321, 4320, 4521, 4326, and 3820 were assessed for ADCC activity against U266, MM1.S, LP-1, and RPMI 8226 CD138^+ multiple myeloma cell lines using a luciferase based ADCC reporter assay, as described in Example 15. CD138^+ target cells were incubated with anti-CD138 antibodies that were serially diluted 3-fold starting at a concentration of 10 μg/mL, and subsequently added to FcγRIIIa effector cells at a cell ratio of effector:target cell (E:T of 10:1). After a 16 hour incubation at 37° C., cellular luciferase levels were quantified as a measure of ADCC activity and reported as relative luminescence units (RLU)."}
{"molecule": "B1", "ADCC activity (RLU)": "induced ADCC activity"}
{"molecule": "B2", "ADCC activity (RLU)": "induced ADCC activity"}
{"molecule": "B3", "ADCC activity (RLU)": "induced ADCC activity"}
{"molecule": "B4", "ADCC activity (RLU)": "induced ADCC activity"}
{"molecule": "B5", "ADCC activity (RLU)": "induced ADCC activity"}
{"test_system": "CD138+ MM1.S cells", "test": "Antibody binding to MM1.S cells by flow cytometry", "set-up": "species or system human", "conditions": "FIG. 3", "method": "as §1, §2"}
{"molecule": "B1", "Antibody binding by flow cytometry": "dose-dependent binding"}
{"molecule": "B2", "Antibody binding by flow cytometry": "dose-dependent binding"}
{"molecule": "B3", "Antibody binding by flow cytometry": "dose-dependent binding"}
{"molecule": "B4", "Antibody binding by flow cytometry": "dose-dependent binding"}
{"molecule": "B5", "Antibody binding by flow cytometry": "dose-dependent binding"}
{"test_system": "CD138+ RPMI 8226 cells", "test": "Luciferase-based ADCC reporter assay against RPMI 8226", "type": "cell-based, human", "conditions": "3-fold dilutions from 10 μg/mL, E:T 10:1, 16 h, FIG. 4", "method": "as §4, §5"}
{"molecule": "B1", "ADCC activity (RLU)": "induced ADCC activity"}
{"molecule": "B2", "ADCC activity (RLU)": "induced ADCC activity"}
{"molecule": "B3", "ADCC activity (RLU)": "induced ADCC activity"}
{"molecule": "B4", "ADCC activity (RLU)": "induced ADCC activity"}
{"molecule": "B5", "ADCC activity (RLU)": "induced ADCC activity"}
{"test_system": "CD138+ MM1.S cells", "test": "Luciferase-based ADCC reporter assay against MM1.S", "type": "cell-based, human", "conditions": "3-fold dilutions from 10 μg/mL, E:T 10:1, 16 h, FIG. 4", "method": "as §4, §5"}
{"molecule": "B1", "ADCC activity (RLU)": "induced ADCC activity"}
{"molecule": "B2", "ADCC activity (RLU)": "induced ADCC activity"}
{"molecule": "B3", "ADCC activity (RLU)": "induced ADCC activity"}
{"molecule": "B4", "ADCC activity (RLU)": "induced ADCC activity"}
{"molecule": "B5", "ADCC activity (RLU)": "induced ADCC activity"}
{"test_system": "CD138+ human lymphoblastic myeloma U266 cells", "test": "Luciferase-based ADCC reporter bioassay (Jurkat FcγRIIIa effector cells) against U266", "type": "cell-based", "conditions": "3-fold dilutions from 10 μg/mL, E:T 10:1, 16 h, FIG. 4", "method": "as §4, §5\nBriefly, the two antibodies were evaluated for ADCC activity against CD138^+ human lymphoblastic myeloma U266 cells in a luciferase based ADCC reporter assay using, as effector cells, engineered Jurkat cells stably transfected with the human FcγRIIIa receptor as described in Example 1. This comparison is summarized in FIG. 9B with data normalized as fold-induction of ADCC activity relative to the minus antibody control."}
{"molecule": "B1", "ADCC activity (RLU)": "induced ADCC activity"}
{"molecule": "B2", "ADCC activity (RLU)": "induced ADCC activity"}
{"molecule": "B3", "ADCC activity (RLU)": "induced ADCC activity"}
{"molecule": "B4", "ADCC activity (RLU)": "induced ADCC activity"}
{"molecule": "B5", "ADCC activity (RLU)": "induced ADCC activity"}
